Results reported in patent US7871610B2, “Antibodies to Tie1 ectodomain” (Dyax Corp., priority 2003, dated 2011).

What was measured:
[1] = target: T1, recombinant human Tie1-Fc (Homo sapiens, UniProt P35590); assay: BIAcore, E3 Fabs on recombinant human Tie1-Fc; type: binding; conditions: Fab
T1 construct: selected against the Tie1 extracellular domain fused to human Fc or to a histidine purification tag
T1 sequence (P35590 22-759 limits assumed): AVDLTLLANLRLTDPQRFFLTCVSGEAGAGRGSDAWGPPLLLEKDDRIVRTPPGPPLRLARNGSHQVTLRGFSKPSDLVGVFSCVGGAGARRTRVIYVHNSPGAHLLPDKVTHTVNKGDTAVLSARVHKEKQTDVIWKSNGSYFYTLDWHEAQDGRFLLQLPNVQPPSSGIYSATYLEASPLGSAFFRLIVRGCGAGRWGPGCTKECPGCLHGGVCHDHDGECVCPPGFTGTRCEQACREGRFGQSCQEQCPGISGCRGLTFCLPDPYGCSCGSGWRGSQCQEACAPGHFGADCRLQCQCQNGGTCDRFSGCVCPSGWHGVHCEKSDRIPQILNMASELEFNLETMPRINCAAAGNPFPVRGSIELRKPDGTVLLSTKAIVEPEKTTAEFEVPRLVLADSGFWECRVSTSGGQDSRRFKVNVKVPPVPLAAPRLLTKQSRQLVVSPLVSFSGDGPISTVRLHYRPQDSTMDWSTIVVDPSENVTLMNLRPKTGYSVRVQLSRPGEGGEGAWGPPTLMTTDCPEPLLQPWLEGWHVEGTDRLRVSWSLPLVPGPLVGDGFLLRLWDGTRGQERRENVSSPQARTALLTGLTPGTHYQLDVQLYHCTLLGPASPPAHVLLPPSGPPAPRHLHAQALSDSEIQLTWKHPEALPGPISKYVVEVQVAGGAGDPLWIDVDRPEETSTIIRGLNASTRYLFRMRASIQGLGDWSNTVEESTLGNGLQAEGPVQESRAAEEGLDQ
Experimental: Recombinant purified human Tie1-Fc antigen (Stock 2.45 mg/ml) was biotinylated using the EZ-link Sulfo-NHS-SS-Biotin (Pierce, Cat. 21331). The reaction was performed for 2 hours on ice in 50 mM sodium carbonate buffer, pH 9.6, in the presence of a 5-fold molar excess of biotinylating agent and was stopped by the addition of Tris-HCl, pH 7.5 (50 mM final concentration) followed by a 1-hour incubation on ice. Samples were then dialyzed against PBS. The antigen was then diluted 1/100 fold in HBS and was then captured onto a streptavidin chip. This was coated to a density of 830RU (resonance units). All analysis was performed in HBS buffer. The parental Fab E3 and germlined E3 Fab were prepared as described above. A stock solution of 0.587 mg/ml (11740 nM) was diluted 1/587 in HBS+BSA to obtain a stock of 20 nM and the germlined Fab E3 0.025 mg/ml (500 nM) was diluted 1/25 in HBS+BSA to obtain a stock of 20 nM. Serial dilutions were made of each Fab preparation to obtain 10 nM, 5 nM, 2.5 nM, and 1.25 nM solutions. For the association phase samples were injected at 30 μl/min for 4 minutes using kinject program. […] All samples were run and analyzed in duplicate.
(§1) Sensorgrams were analyzed using the simultaneous ka/kd fitting program with 1:1 model in the BIAEVALUATION™ software 3.1.

Mouse Tie 1-Fc = target: T2, Mouse Tie 1-Fc (Mus musculus, UniProt Q06806); assay: BIAcore, coated E3 IgGs with recombinant mouse Tie-1 Fc; type: binding; conditions: IgG, mouse Tie1-Fc
T2 sequence (Q06806 23-755 limits assumed): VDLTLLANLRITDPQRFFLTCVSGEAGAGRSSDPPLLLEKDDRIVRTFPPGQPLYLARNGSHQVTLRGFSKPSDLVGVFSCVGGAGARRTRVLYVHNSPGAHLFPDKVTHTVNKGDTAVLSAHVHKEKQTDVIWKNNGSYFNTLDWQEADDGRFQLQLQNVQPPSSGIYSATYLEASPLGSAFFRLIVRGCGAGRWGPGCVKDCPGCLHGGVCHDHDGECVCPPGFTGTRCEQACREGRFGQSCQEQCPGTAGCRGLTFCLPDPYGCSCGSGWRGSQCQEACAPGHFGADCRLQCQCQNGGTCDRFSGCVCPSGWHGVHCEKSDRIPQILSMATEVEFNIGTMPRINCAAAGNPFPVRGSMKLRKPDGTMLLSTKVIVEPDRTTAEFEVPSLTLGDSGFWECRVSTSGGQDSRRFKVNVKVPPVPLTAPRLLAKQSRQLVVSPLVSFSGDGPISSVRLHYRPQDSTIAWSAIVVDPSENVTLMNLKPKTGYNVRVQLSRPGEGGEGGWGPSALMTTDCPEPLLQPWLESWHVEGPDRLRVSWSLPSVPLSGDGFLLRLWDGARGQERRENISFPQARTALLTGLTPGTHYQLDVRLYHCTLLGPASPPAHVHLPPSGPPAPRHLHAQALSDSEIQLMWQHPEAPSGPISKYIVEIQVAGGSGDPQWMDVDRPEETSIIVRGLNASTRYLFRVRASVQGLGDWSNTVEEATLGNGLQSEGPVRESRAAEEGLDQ
Experimental: In order to evaluate if the binding behavior had been affected in any way by the conversion of the somatic mutations back to germline, the germlined antibody was produced and tested as a IgG. The germlined E3 was reformatted to an IgG as described. This was then used to transiently transfect HEK293T cells using established procedures. The IgG was purified from the culture supernatant using protein A column chromatography using established procedures and the subsequent IgG was then tested for binding activity using surface plasmon resonance (BIAcore). The germlined E3 IgG1 stock solution 0.63 mg/ml (2146-002) was diluted 1/50 in a buffer of pH 4.5 and the parental E3 IgG1 stock solution 0.56 mg/ml (2143-001) was diluted 1/50 in a buffer of pH 4.5. The IgG were directly coated via onto a CM5 chip. The surface of the chips was activated with a 7 minute pulse of 0.05M NHS/0.2M EDC and the IgG was flowed over until 780RU germlined E3-IgG and 728 non germlined E3 IgG was coated onto the surface. All flow cells were subsequently deactivated with a 7 minute pulse of 1M ethanolamine hydrochloride pH8.5. All analysis was performed in HBS buffer. […] All samples were run and analyzed in duplicate
as §1

B1: E3: human anti-Tie1 antibody from Fab phage library; HC SEQ ID NO:114, LC SEQ ID NO:116 (antibody, V domains shown)
VH: EVQLLESGGGLVQPGGSLRLSCAASGFTFSMYGMVWVRQAPGKGLEWVSVISPSGGNTGYADSVKGRFTISRDNSKNTLYLQVNSLRAEDTAVYYCARAPRGYSYGYYYWGQGTLVTVSSASTKGPSVFPLAPSSKSTSGG
VL: DIQMTQSPLSLSASVGDRVTITCRASQGIGHYLAWYQQKPGKVPKLLIYTASTLQSGVPSRFSGSGSGTDFTLTINSLQPEDVATYYCQQFNSYPHTFGQGTRLDIK
modifications: Synthetically generated peptide
- effect of germlining on binding activity [1]: minimal effect on the binding activity
- effect of germlining on binding activity (Mouse Tie 1-Fc): minimal impact on the binding activity
